{
  "source": "the nanobody polyreactivity screen of Harvey et al. (2022)",
  "data": [
    {"test": "yeast display, Sf9 membrane polyspecificity reagent, FACS + sequencing; frameworks hold sequencing errors", "in_short": "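Galactose induction of a Saccharomyces cerevisiae BJ5465 synthetic nanobody display library ran 36–48 hours. The cells were then stained for 1 hour at 4 °C with 10% biotinylated, detergent-solubilized Sf9 membrane reagent, pulled down on streptavidin microbeads and FACS-sorted into low and high (top ~1%) gates on expression and reagent-binding fluorescence. Labels for polyreactivity follow the gate of origin.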", "values": [
      {"sequence": "QVQLVESGGGLVQAGGSLRLSCAASGSTLHEYAMGWYRQAPGKARELVAAISRGGGNTNYADSVKGRFTISRDNAKNTVYLQMNSLIPEDTAVYYCNARHGKIIFYLERYDYWGQGTQVTVSS", "polyreactivity (PSR sort gate)": "low polyreactivity"},
      {"sequence": "QVQLVESGGGLVQAGGSLRLSCAASGSTLKYNALGWYRQAPGKERELVAAISTSGGNTYYADSVKGRFTISRDYAKNTVYLQMNTLKPEDTAVYYCAKVLGFYYYDYYTPFARGYWGQGTQVTVSS", "polyreactivity (PSR sort gate)": "low polyreactivity"},
      {"sequence": "QVQLVESGGGLVQAGGSLRLSCAASGSTLLYYVMGWYRQAPGKERELVAAITGTGGRTYYADSVKGRFTISRDNAKNTVYLQMNSLKPEDTAVYYCAADGKFEYDYWGQGTQVTVSS", "polyreactivity (PSR sort gate)": "low polyreactivity"},
      {"sequence": "QVQLVESGGGLVQAGGSLRLSCAASGSTLNRNAMGWYRQAPGKERELVAAIRVSGGSTYYADSVKGRFTISRDNAKNTVYLQMNSLKPEDTAVYYCATRYVRARWYGYWGQGTQVTVSS", "polyreactivity (PSR sort gate)": "high polyreactivity"},
      {"sequence": "QVQLVESGGGLVQAGGSLRLSCAASGSTLNRNVMGWYRQAPGKERELVAVITYGVGSTYYADSVKGRFTISRDNAKNTVYLQMNSLKPEDTAVYYCNRPTYLHSTSYSYDYWGQGTQVTVSS", "polyreactivity (PSR sort gate)": "low polyreactivity"},
      {"sequence": "QVQLVESGGGLVQAGGSLRLSCAASGSTLNYYAMGWYRQAPGKERELVAAIRSGGNTNYADSVKGRFTISRDNAKNTVYLQMNSLKPEDTAVYYCAKDESYFYDRVPLDYWGQGTQVTVSS", "polyreactivity (PSR sort gate)": "low polyreactivity"},
      {"sequence": "QVQLVESGGGLVQAGGSLRLSCAASGSTLPGFTMGWYRHAPGKERELVAAISWSGGSTSYADSVKGRFTISRDNAKNTVYLQMNSLKPEDTAVYYCDVDRFWRPVRSGSTYDYWGQGTQVTVSS", "polyreactivity (PSR sort gate)": "low polyreactivity"},
      {"sequence": "QVQLVESGGGLVQAGGSLRLSCAASGSTLPNNAMGWYRQAPGKERELVAAISSSGGSTYYADSVKGRFTISRDNAKNTVYLQMNSLKPEDTAVYYCAAVYSRGTYNYWGQGTQVTVSS", "polyreactivity (PSR sort gate)": "high polyreactivity"},
      {"sequence": "QVQLVESGGGLVQAGGSLRLSCAASGSTLQINGMGWYRQAPGKERELVAAISIGGDTNYADSVKGRFTISRDNAMNTVSLQMNSLKPEDTAVYYCAASGAYDEAYGEAFYYWGQGTQVIVSS", "polyreactivity (PSR sort gate)": "low polyreactivity"},
      {"sequence": "QVQLVESGGGLVQAGGSLRLSCAASGSTLQVNAMGWYRQATGKERELVDTISFSGGSTYYADSVKGRFTISRDNAKNTVYLQMNSLKPEDTAVYYCNADSFVSWYNQFWYQATYDYWGQGTQVTVSS", "polyreactivity (PSR sort gate)": "low polyreactivity"},
      {"sequence": "QVQLVESGGGLVQAGGSLRLSCAASGSTLRGNAMGRYRQAPGKVREFVAAISSSGGRTYYADSVKGRFTISRDNAKNTVNLQMTSLNPEDTAVYYCAAARYQYYFSSVPRAYYYWGQGTQVTVSS", "polyreactivity (PSR sort gate)": "high polyreactivity"},
      {"sequence": "QVQLVESGGGLVQAGGSLRLSCAASGSTLRGYAMGWYRQAPGKERELVAAITYISDSTYYADSVKGRFTISRDNAKNTVYLQMNSLKPEDTAVYYCNAYYDGDWRYTSQETGDHWGQGTQVTVSS", "polyreactivity (PSR sort gate)": "low polyreactivity"},
      {"sequence": "QVQLVESGGGLVQAGGSLRLSCAASGSTLRRNAMGWSRQAPGKERELVAAITGSRGSTFYADSVKGRFTISRDNAKNTVYLQMNSLKPEDTAVYYCAVYKWSTRVSQYRYDYWGQGTQVTVSS", "polyreactivity (PSR sort gate)": "high polyreactivity"},
      {"sequence": "QVQLVESGGGLVQAGGSLRLSCAASGSTLRRNAMGWYRQAPGKERELVAAISGTGGSTYYADSVKGRFTISRDNAKNTVYLQMYSLKPEDTAVYYCAATGWYYDYDYWGQGTQVTVSS", "polyreactivity (PSR sort gate)": "low polyreactivity"},
      {"sequence": "QVQLVESGGGLVQAGGSLRLSCAASGSTLRRNAMGWYRQAPGKERELVAAITGSRGSTFYADSVKGRFTISRDNAKNTVYLQMNSLKPEDTAVYYCAVYKWSTRVSQYRYDYWGQGTQVTVSS", "polyreactivity (PSR sort gate)": "high polyreactivity"},
      {"sequence": "QVQLVESGGGLVQAGGSLRLSCAASGSTLRSKAMGWYRQAQGKERELVASISSGGSTSYADSVKGRFTISRDNAKNTVYLQMNSLKPEDTAVYYCAADNSVGSYDYWGQGTQVTVSS", "polyreactivity (PSR sort gate)": "low polyreactivity"},
      {"sequence": "QVQLVESGGGLVQAGGSLRLSCAASGSTLRTYAMVWYRQAPGKERELVAAISFSTTSTYYADSVKGRFTISRDNATNTVYLQMNSLKPEDTAVYYCAATYQILTTSAHDSWGQGTQVTVSS", "polyreactivity (PSR sort gate)": "high polyreactivity"},
      {"sequence": "QVQLVESGGGLVQAGGSLRLSCAASGSTLSDYAMGWYRQAPGKERELVAAISTSGGRTYYADSVKGRFTISRDNAKNTVYLQMNSLKPEDTAVYYCAVDHYSSYEYWGQGTQVSVSS", "polyreactivity (PSR sort gate)": "low polyreactivity"},
      {"sequence": "QVQLVESGGGLVQAGGSLRLSCAASGSTLSGNAMGWYRQAPGKERELVAAISWNGGATYYADSVKGRFTISRDNAKNTVYLQMNSQKPEDTAVYYCAAEYIVTYEYWYFGYDYWGQGTQVTVSS", "polyreactivity (PSR sort gate)": "low polyreactivity"},
      {"sequence": "QVQLVESGGGLVQAGGSLRLSCAASGSTLSHYAMGWYRQAPGKERELVAAINSNGGSTYYADSVKGRFTISRDNAKNTVYLQMNSLKPEDTAVYYCKTYFRYFSFYGRPFDYWGQGTQVTVSS", "polyreactivity (PSR sort gate)": "high polyreactivity"},
      {"sequence": "QVQLVESGGGLVQAGGSLRLSCAASGSTLSQNAMGWYRQAPGKEREFVADISGSGDSTYYADSVKGRFTISRDNAKNTVYLQMNSLKPEDTAVYYCAARSLVQDHAYGYNYWGQGTQVTVSS", "polyreactivity (PSR sort gate)": "low polyreactivity"},
      {"sequence": "QVQLVESGGGLVQAGGSLRLSCAASGSTLSRYTMGWYRPEPGKERELVAAIRSSGGSTYYADSVKGRFTISRDNAKNTVYLQMNSLKPEDTAVYYCARTQQRTTERVHWIRYYYWGQGTQVTVSS", "polyreactivity (PSR sort gate)": "low polyreactivity"},
      {"sequence": "QVQLVESGGGLVQAGGSLRLSCAASGSTLSSYAMGWYRPAPGTERELGAVISGGGRTYYADSVKGRFTISRDNAKNTVYLQMNSLKPEDTAVYYCAAVTFSLGYRYYYWGQGTQVTVSS", "polyreactivity (PSR sort gate)": "high polyreactivity"},
      {"sequence": "QVQLVESGGGLVQAGGSLRLSCAASGSTLSYNAMGWYRPATGKERELVAAISWSDGGTYYADSVKGRFTISRDNAKNTVYLQMNSLKPEDTAVYYCNAESQWSYYFIYDYWGQGTQVTVSS", "polyreactivity (PSR sort gate)": "high polyreactivity"},
      {"sequence": "QVQLVESGGGLVQAGGSLRLSCAASGSTLSYYAMGWYRPAPGKDRELVAAISFSGGITYYADSVKGRFTISRDNAKNTVYLQMNSLKPEDTAVYYCNAEYQVYRAYVIWYDYWGQGTQVTVSS", "polyreactivity (PSR sort gate)": "high polyreactivity"},
      {"sequence": "QVQLVESGGGLVQAGGSLRLSCAASGSTLTDYAMGWYRQAPGKERELVAAITSDGDSTNYADSVKGRFTISRDNAKNTVYLQMNSLKPEDTAVYYCAAQGKYHYYVPAYEYWGQGTQVTVSS", "polyreactivity (PSR sort gate)": "low polyreactivity"},
      {"sequence": "QVQLVESGGGLVQAGGSLRLSCAASGSTLTLYAMGWYRQARGKERELVAAIDWTGGSTYYADSVKGRFTISRDNAKNTVYLQMNSLKPEDTAVYYCAAHSFTEGYWYEYWGQGTQVTVSS", "polyreactivity (PSR sort gate)": "high polyreactivity"},
      {"sequence": "QVQLVESGGGLVQAGGSLRLSCAASGSTLTRNDIGWYRQAPGKERELVAAITFSGSDTYYADSVKGRFTISRDNAKNTVYLQMNILKPEDTAVYYCAAEYGGYSIYLFIGRYYWGQGTQVTVSS", "polyreactivity (PSR sort gate)": "low polyreactivity"},
      {"sequence": "QVQLVESGGGLVQAGGSLRLSCAASGSTLTSNAMGWYRQAPGKERELVAAIRSGGSTNYADSVKGRFTISRDNAKNTVYLQMNSLKPEDTAVYYCNKDVLWQGYGYSRVSYDYWGQGTQVTVSS", "polyreactivity (PSR sort gate)": "low polyreactivity"},
      {"sequence": "QVQLVESGGGLVQAGGSLRLSCAASGSTLVDYAMGWYRQAPGKERELVATISFRGGSTYYADSVKGRCTISRDNAKNTVYLQMNSLKPEDTAVYYCAAEYGPSLYYYYGHAAYAYGYWGQGTQVTVSS", "polyreactivity (PSR sort gate)": "low polyreactivity"},
      {"sequence": "QVQLVESGGGLVQAGGSLRLSCAASGSTLVDYAMGWYRQAPRKERELVATISFRGGSTYYADSVKGRFTISRDNAKNTVYLQMNSLKPEDTAVYYCAREYGDGYEYWGQGTQVTVSS", "polyreactivity (PSR sort gate)": "low polyreactivity"},
      {"sequence": "QVQLVESGGGLVQAGGSLRLSCAASGSTLVGNAMGWYRQAPRKERELVATISKRSGSTYYADSVKGRFTISRDNAKNTVYLQMNSLKPEDSAVYYCNADDVRRRAYRIGSYWGYDYWGQGTQVTVSS", "polyreactivity (PSR sort gate)": "low polyreactivity"},
      {"sequence": "QVQLVESGGGLVQAGGSLRLSCAASGSTLVGNTMGWYRQSPGKERELVAAITGVGSTNYADSVKGRFTISRDNAKNTVYLQMNSLKPEDTAVYYCAAQYSYTYIVSYLYDMDYWGQGTQVTVSS", "polyreactivity (PSR sort gate)": "low polyreactivity"},
      {"sequence": "QVQLVESGGGLVQAGGSLRLSCAASGSTLVIYAMGWYRQAPGKERELVAAISRGGTTYYADSVKGRFTISRDNAKNTVYLQMNSLKPEDTAVYYCAADARVKRYYFRKSGYWGQGTQVTVSS", "polyreactivity (PSR sort gate)": "high polyreactivity"},
      {"sequence": "QVQLVESGGGLVQAGGSLRLSCAASGSTLVNNAMGWDRQAPGKEREWVAAITFSGGTTYYADSVKGRFTISRDNAKNTVYLQMNSLKPEDTAVYYCAAEIWLEYVGYDYWGQGTQVTVSS", "polyreactivity (PSR sort gate)": "high polyreactivity"},
      {"sequence": "QVQLVESGGGLVQAGGSLRLSCAASGSTLVRYALGLSRQAPGKERELVAAISRSGSSTYYADSVKGRFTISRDIAKNTVYLQMNSLKPEDTAVYYCATDRYPTTPYYNYRFGYWGQGTQVTVSS", "polyreactivity (PSR sort gate)": "high polyreactivity"},
      {"sequence": "QVQLVESGGGLVQAGGSLRLSCAASGSTLVRYAMGWYRQAPGKEREFVAAISWTGGSTYYADSVKGRFTISRDYAKNTVYLQMNSLKPEDTAVYYCSAEYFRGPSYSYWGQGTQVTVSS", "polyreactivity (PSR sort gate)": "high polyreactivity"},
      {"sequence": "QVQLVESGGGLVQAGGSLRLSCAASGSTLVTYTMGWYRQAPGKERELVASISWRGGSTYYADSVKGRFTISRDNAKNTVYLQMNSLKPEDTAVYYCNAVYYLWDYDYWGQGTQVTVSS", "polyreactivity (PSR sort gate)": "low polyreactivity"},
      {"sequence": "QVQLVESGGGLVQAGGSLRLSCAASGSTLYAYAVGWYRQAPGKERELVAAIRTGGSTYYADSVKGRFTISRDNAKNTVYLQMNRLIPEDTAVYYCAADHGYQYGYWGQGTQVTVSS", "polyreactivity (PSR sort gate)": "low polyreactivity"},
      {"sequence": "QVQLVESGGGLVQAGGSLRLSCAASGSTLYRNAMGWYRQAPGKEREFVAAISWSGGSTYYADSVKGRFTISRDNAKNTVYLQMNSLKPEDTAVYYCNARGPTVYETHNYWGQGTQVTVSS", "polyreactivity (PSR sort gate)": "low polyreactivity"},
      {"sequence": "QVQLVESGGGLVQAGGSLRLSCAASGSTLYRYAMGWYRQAPGKERELVAAISSAGSTHYADSVKGRFTISRDNAKNNVYLQMKSLKPEDTAVYYCNAKGYLHRSRYDYWGQGTQVTVSS", "polyreactivity (PSR sort gate)": "high polyreactivity"},
      {"sequence": "QVQLVESGGGLVQAGGSLRLSCAASGSTLYSYAMGWYRQAPGKERELVAAIRRDSGRTYYADSVKGRFTISRDNAKNTVYLQMNSLKPEDTAVYYCAVRKQYSGRYYRAYDYWGQGTQVTVSS", "polyreactivity (PSR sort gate)": "high polyreactivity"},
      {"sequence": "QVQLVESGGGLVQAGGSLRLSCAASGSTMGRYAMGWYRQAPGKERELVASITWSDDSTYYADSVKGRFTISRDNAKNTVYLQMNSLKPEDTAVYYCAAAGNLYTYRFYYWGQGTQVTVSS", "polyreactivity (PSR sort gate)": "low polyreactivity"}
    ]}
  ]
}
